# Measurements as given in publication PMC11169341, “Development of DNA aptamers targeting B7H3 by hybrid-SELEX: an alternative to antibodies for immuno-assays”.
# T1: recombinant human B7-H3 His-tag (R&D 1949-B3-050) (Homo sapiens, UniProt Q5ZPR3-2 29-245)
# T1 sequence: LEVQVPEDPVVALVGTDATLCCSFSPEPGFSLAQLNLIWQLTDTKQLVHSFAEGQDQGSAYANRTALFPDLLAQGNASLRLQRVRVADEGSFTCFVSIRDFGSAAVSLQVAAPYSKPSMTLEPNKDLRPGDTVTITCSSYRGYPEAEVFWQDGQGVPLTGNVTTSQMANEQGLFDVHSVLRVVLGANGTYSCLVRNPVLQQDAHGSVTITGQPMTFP
# Target: T1, recombinant human B7-H3 His-tag (R&D …)
# Assay: dot blot; FITC aptamer, 10 ng protein on membrane; ABB: AWB (composition not given) + 0.1 mg/ml yeast tRNA, 0.1 mg/ml salmon sperm DNA, 5% FBS, 1 mg/ml BSA; 60 min; 0-500 nM aptamer; flow binding assay on ice, dot-blot temperature and pH not stated
# Conditions: protein: commercial; tags: C-terminal His; label: FITC or biotin
row,Binder,Kd
1,VRF-HS_B7H3-01 (ssDNA) DNA: TAGGGAAGAGAAGGACATATGATACAGCACGGTATGACGAGTCCATTGTGTGTGCAGCTCGCTAATTGACTAGTACATGACCACTT,19.2 ± 4.4 nM
2,VRF-HS_B7H3-02 (ssDNA) DNA: TAGGGAAGAGAAGGACATATGATCGCCCCTCTTTTCGATTTCAAGCTCCTAACCCACACCTCTTTGACTAGTACATGACCACTT,24.6 ± 3.69 nM
3,VRF-HS_B7H3-03 (ssDNA) DNA: TAGGGAAGAGAAGGACATATGATATAAGTGACACATCAATCTCATGCGGATGAACCAGTGCGTTTGACTAGTACATGACCACTT,22.7 ± 3.71 nM
4,VRF-HS_B7H3-04 (ssDNA) DNA: TAGGGAAGAGAAGGACATATGATTGCCCCTGACACTTACACGCCACTATCAAGGCACACGCCATTGACTAGTACATGACCACTT,31.5 ± 4.02 nM
5,VRF-HS_B7H3-05 (ssDNA) DNA: TAGGGAAGAGAAGGACATATGATTGAGAAGTCACGCCACTTACCTGCGCTCAAAACCTCAGAATTGACTAGTACATGACCACTT,32.7 ± 4.56 nM
